A short description of this data set: label from the status in PepcDB records.

The text below walks through data of a protein production outcome set (Wang et al. 2014).

In the case of “MEVIREQEFVNQYHYDARNLEWEEENGTPKTNFEVTFQLANRDEAAKVTSIVAVLQFVIVRDEFVISGVISQMAHIQGRLINEPSEFSQDEVENLAAPLLEIVKRLTYEVTEIALDRPGVTLEF”, the protein production result was “not failed”.
On to “MEVIVVDDEELSLNRLGNMLAGMPGVEVCGLFYTAAEALRYINENKPDAVFLDICIPETDGLALANKIKDIDGSAKVVFVTGYDEYAVRAFELEAVDYLMKPISRDRLEKTVQRLQRTLLGTDRQSNPQMKVSCFGGFRATVCESDSGSVNWRSPKTEELFAFLIFKRNVSRDEIANTLWDGLEPGRALTNINSTMYYIRKALSPHGLEKCIAATRKEIRIDSELISCDLYEFERLLRGRPSSKDRVETLDRLAELYKGELFQGKAYEWSFAKSRSLESGFISALLETAEYYREKRGYEQAEKMYKRAFEIDPFNEDICGHIIQICLKMGRKSEALRLYLQMEKFLMEELGEKPQAKLKKLFEEQ”, for which the protein production result was “failed”.
Regarding “MEVKFLDYTLRVGGEAGQGLQTIGGALAKIFSRKGYHVFTHQDYMSRIRGGHNFYQLRFSDREVMASKELVDILLALDLNTIEIHKNSVREDGFILYDSESMKKKFEGPQFIDIPFRKIALDVGKKSVMANTVATGAVLGLLDLGLDLLNDILRVTFEDKGKEIIEQNIACAEAGYNYAHSNCSRCEAFGIPEPEARKLLLIDGVQAIGMGALMSGCTFYSAYPMSPSTGILNYLASRAEEYGLVIEQAEDEIAAINMTIGASFAGARAMTGTSGGGFSLMAEGISLAGITETPLVLAEMQRPGPATGLPTRTEQGDLLFVLNAGHGEFPRVIFEPGTPEQAFYLTSKAFELAEKYQIPVFILSDQYLGESEWTFESFDLKRPVYNDYRVREKDLEGAEDYKRYGYTDTGISPLAVPGEAGKHLVVADSDEHDEEGHIIEDAETRIKMVQKRLLKKLPLIKEEIEAPLLYGDSSPEIVLVGHGSTYGVIKEIVDIFSKDKKIAMMHFSQIYPFPERDRFDYIEFLKNANLVISVENNATGQFAKLMRAETGFEFARQILKYDGRPFTIEKLKEEIDACL”, the protein production entry is “failed”.
The result for “MEVNGEEERRSRREDEEKEDYYYSLLNSPCSVCNKFVQAILKCLGLESSSIPPSSSSSSPSLVEEEDSGTETVEETGFMARITAVLRRRPRPPPYSSGRPGQNN” reads “not failed”; that for “MEVNNETMQKSKFGRICVFCGSSQGKKSSYQDAAVDLGNELVLRNIDLVYGGGSIGLMGLVSQAVHDGGRHVIGVIPKTLMPRELTGETVGEVRAVADMHQRKAEMARHSDAFIALPGGYGTLEELLEVITWAQLGIHDKPVGLLNVDGYYNSLLSFIDKAVEEGFISTNARQIIISAPTAKELVKKLEEYSPCHESVATKLCWEIERIDYSSED”, “failed”.
Turning to “MEVTLLGTGDTTGTPTVQCDCDTCERARDPDEELRANVRERGIDPTGGVERSRFSVAVENDTTGESLLVDLSPDFRHQFLRESVPLPDAAIITHIHFDHLDGLGNAYRLFDELPVHAADETDPVTDESVAEAVRSRYDYLDTVSVHAQTPLEPFTVAGFEVTLVPVTHPPLLCYGLRIEEPQTGAVLSISGDTCYDVPDRSKSVLTGADLALVEGIVHPEACEYHPKGGTHHNEDGVPRTFGTKHMTLPGARDFAADIEADDYRIVHTAHYVPADRAFADDIGLDGEQFML”, the protein production result is recorded as “failed”.
As to “MEYDYLVIAGYFALMVAISLLFKKMASNSTSDYFRGGGKMLWWMVGATAFMTQFSAWTFTGAAGKAFNDGFAVLAVFVGNMVAYVFAYFYFARRFRQMRVDTPTEGVKRRFGNTNEQFFTWVIIPLSVINAGVWLNGLGVFASAVFNADIVTTIWVTGLAVLAISLLSGAWGVVASDFIQTLVVAVISIACAAVALYVVGGPGEIVENFPGGFIMGPDMNYPLLLVCTFIFFVVKQLQSINNMQESYRFLNAKDSKNASKAALMALVMMLFGAVIWFIPPWASAILYPDAATQYSSLGAKASDAVYLVFARETMPLGTVGLLMAGLFAATMSSMDSALNRNSGIFVRSFYSNIVRKGQASDKELLRAGQIACLVNGILVIMMAQFFNSLKHLSLFDLMMQVATLLQSPILVPLFLGIIIRRTPKWAPWATVVVGMFVSWSVVKIFTPEFVGSWFGMDELTRREAGEMRTMITIAAHLVFTAGFFCLSTLFYKEETDTHKETTAEFFKDVDTECVAEEGQDIVDRMQRAKLGTLVIYMAAGLTLMVLIPNPLWGRLLFLACAASVFAVGYGLKKSAKLDTQLSKVAATTTQ”, the protein production result is listed as “failed”.
“MEYGAICTPFIFVVYAKSKYLCVLISNEMGKNKLEKFADMASYPHVFEYPYSAVDNVPFDMKGKWHQEFFGNDHPIVLELGCGRGEYTVGLGRMFPDKNFIAVDIKGSRMWTGATESLQAGMKNVAFLRTNIEIIERFFAAGEVSEIWLTFSDPQMKKATKRLTSTYFMERYRKFLKPDGIIHLKTDSNFMFTYTKYMIEANQLPVEFITEDLYHSDLVDDILSIKTYYEQQWLDRGLNIKYIKFRLPQEGVLQEPDVEIELDPYRSYNRSKRSGLQTSK”: the protein production entry was “failed”.
As for “MEYHLRTKLNGNIAMTSCFHENSFLQCDRSLYKFIWVRHGALDVEVDHVVMHLEKEEMISLTPLHHVQIRGVDGEYLTFLFNSNFYCIYGHDSEVSCNGFLFNGSSRVMRLKLSPSQSARLDSIVDIFRGECGIQDNLQEEMLRIILKRFIITCTRIAREKFDVDPGRENMFDVIRQFYVLVDSHFKEKKQVQDYADMLCRSPKTISNLFSLYGLSSPLRVIHERVDAEAKRLLLYTGKSAKEISEILGFEDLATFSRFFKKMNKESLSEYRKREKRE”, the protein production result was “not failed”.
Take “MEYRITGKGVEISEAIKNYLEKRLDKIDRVIYDDDLVSFNVRIEKDGKNQYVVKFNMNLKGNIINVEERHPDIYTAIDFASDALEKQVKRLKERLKNHPHRSSALVETPLEEPGEFSPSDKVSSVKRVSLLNLDLDEAVMQMDELNHRFLVFRNVNTGEINLLYRDENGDIHLIEMAE”: the protein production result is “failed”.
Turning to “MEYYDIIIVGAGPAGSTLARALEDSGKRVLIIDKQAFPRDKTCAGWVTPAVMASLDIDPGKYSVGRTLQPIRRFRIGMMGQSAVENDHGDIVSYGIRRCEFDDYLLDRAECEKQLATAVKSINRNNGNWVINDQWQAPLLVGAGGHFCPVARLLGDGPGKHETVVAAKEVEFEMTPEQARACEARGDTPELWFCRDLKGYAWVFRKGSYLNIGLGREDNHRLSDHLEAFVEEMKQSGRIPSDLPGRFKGHAYLLYAHANRPLVDDGVLLIGDAAGLAYTQSGEGIRPAIESALMAANVIKAAPDYSALSLQSYGERIAERFGTRATDQQPGFEVPEWLKQPIASTLMRSHWFTRKVVTEKWFLHQEVPPLEVAV”, the protein production result is “failed”.
Consider “MEYYFTAQKLAVGYDNRPLIENIDFSLKRGEILTLIGPNGAGKSTILKSIARQLSLVSGTIYLDKSDVVTMNGNEFAKKMAVVLTDKLKTELMTCYDVVATGRYPYTGRFGVLSDEDKKAVDEAMELVNVSQIKDKDFTKISDGQRQRVMLSRAICQQPEIIVLDEPTSYLDIKYKLEFLSILQRLKRQKNLTVIMSLHELDMAKRVSDHILCIDGRYVDRYGTPEEVFTDQYVSGLFGITAGSLEHHHHHH”, for which the protein production entry is reported as “not failed”.
As to “MEYYQPVEINVLSAQDLNSINLLFRPTVYVSVSVTRGSRDKQVTPAAAWDKKFLRWNYRMKFYIEDDKVRRNESVFVFQIKCKRFFGSDQVVGKLFIPGCRLGVWGNIRHEPSAPCEDDIYA”, the protein production result was “failed”.
Take “MFADNTLTPKEAVRLCALGTIASQPMRYSELAGSVRHFTSRIMGPSLELMGISIELLRYEGLVEAVDDGQGMEDDAMLAISAAGRRELHSLLTARLRPGSDLSKLVVALKMRFLGLMEAEERAHQIDLLIEGVDSELARLADLRGSDGEGGSALAAWLDHDMALLESRLAWLEDFRARL”: the protein production entry was “not failed”.
Take “MFAEYLDGRMLMQINAGAFLIALLCLRGDRQRTLDRWLFGAAAGVLLLVYYVWRFTDTLPEWRMDFPSLWAHAFFGFESLTIAYTLISIGIMTRTSDHSAEADAGETALRRGREAPPVDIFIATYNEGLDVLEKTIVAALDIDYPNFRVWVLDDTRRDWLREFCDQVGARYVTRPDNAHAKAGNLNNGLRHSAELDGGAPFIMVLDADFAPNRNILLRIVGLFDDPQVGVVQTPQFYYNADPIQYNLRSTECWVDEQRAFFDVMQPSKDAWGTAFCIGTSFVVRREALDRIGGFPIGTVTEDIHLTYKLMPHGYITRWLNERLSVGLSAEGLPEYISQRSRWGLGTIQVALTADGPLRGPGYTLRERLHYVHGLLHWLSRPFTLMLLAGPLLYWYFNVPTLYGEPLQFLAFGVPALLLYWAYSIWITGARAMPIFTEVTQIVAAMAVSATLVSAIFKPFGRPFKVTNKGLDRSKLVVHGKFAAFYGALFVLAAMGLGRAVAADGTASGVVFNIGWTVISMVLYLASLLVCFELPRPRKEERFPHRERARLCIYGSDGLPREFDGVTQDMSCNGIGLISDAAGRVEAGATGAVWLSELGWVTCRVARTQGHLLGIELFPDMAGRHRLIRMLFGEPAHNIAHRGRPRVAIVQLLRRAFTG”: the protein production result was “failed”.
As for “MFAMPTFELDALTTLALALILLGVGAQLKKRSRWLTQLCVPAPVIGGFGFALIVWLLRDQQLLAIKLDTAIQTPLMVAFFTTVGLGGSLGLLRRGGKILFVYLGACWSLALLQNLVGVGAAKALGIDPLLGIMAGAVSLEGGFGAAAAFGPIAENLGAVGATTAALASATFGMVAGGLLGSPLARWLIERNRLQIQADQVSTLQHLESAAQGSVAPLDAPTLLRLLTCILLIMVLGFWIGSALNEHLGIVLPSYVGAMFVAIILRNLNDRARIIDIPDSAVSTLGDVCLGVFLTMAMMSLKFWELEQLGLPLLVILVVQVLVMVLLCVFLLFRLFGGNYDAAVLCAGFMGHGLGATPNAVANMGAICDHYKVFSYKAFIIVPLCGAVLIDIVAIPLITWFINAFA”, the protein production result is “failed”.
For “MFDSVLQQSMQQWLETSLGQYVLEQEQRYFDRVVTDIFGYNATQIGFSGFDFLRNNRMPFKFAFGVRDGASVYAHPHFLPIKSSSIDLVLLPHTLEFNSNPHQILREAHRVLIPEGKVIISGFNPFSLWGMRQRMAKSKTDFPWCGRFIALPRMQDWLELHNFEIVAGQFGCYVPPCTREKWLSRLRFMEAAGDRWWPIAGGVYFLQAVKHECGLHIITPRWEDSPAKRGTVVVPQIERGHRMNNLEVSTVPWREKAGGGLIENRKYGVQYSVNNRDV”, the protein production result is listed as “failed”.
The result for “MFENESLSFEEQTIIQAAERYVQQELANEASGHDWWHIYRVTQLAKTIAEKEQANLFLCILTALLHDIGDEKFNESEEAGLLKVQQWLEANNVSTEQTNHILSIIANMSFKGGNTGKTVTTLEGKVVQDADRLDAIGAIGIARVMAYSGNKGRLIHDPHKQPREQLTQEEYRNGEDTAIMHFYEKLLKLKEQMNTNYGRLLAEKRHQFMELYLEEFYQEWDGHRLEHHHHHH” reads “not failed”.
Turning to “MFERLPVPLSRHERAGPPMPEIGPYTLHTVDTGRFGLDGGAMFGIVPKPLWSQRIEPDEQNRIPLSMRCLLLIGDGRVVLIDTGIGDTFEDTKFQDIFAVDHSGATLEGSLAAHGVAPVDVTDVVLTHLHFDHAGGSTRRIDGEPAVAFPNATYHVQRRHWNWAADPNPKEEQSFRSDTFAPIEEAGQLNLVEGETTLLPHVDVSLVHGHTEAQQTVTVRDDETTLVYVADLLPTTHHLSPAWTMAYDVRPLRTIEEKGEFLEQAADSEWKLFFEHDPEVAVADVERTDRGVQVVNERSLDAL”, the protein production entry is recorded as “failed”.
As for “MFFEIALIGTTASGKTYIANTLAREFNAVVLSLDSLCVYKEINIASAKPSQDDLASIKYFGVNLLSVNEHFNVELFIREYQKAKEFALARNLPLIIVGGTGFYLKTMIDGLSEKTLESKSSLNNDEIYALLLNIDPNYKIEKNDTYRLKKWLGIYEQTREIPSEFLKRTQKTGVLKDIEIYELAWDKEILKKRIKTRTKEMLDNGLLDEAKILFSKFDHKLKALNSIGLKECKEYLDGEISFKELENLITIHTTQLAKRQRTFNKKFQSKALEFDKALATLRMKFSIEKLEHHHHHH”, the entry is “failed”.
